Experimental data reported in patent US11597752B2, “Peptides and combination of peptides and scaffolds thereof for use in immunotherapy against colorectal carcinoma (CRC) and other cancers” (priority 2015, dated 2023).

Each substance was assayed against HLA-A*02:01 (Homo sapiens, UniProt P04439, D140Y/D185E/D98H/E176V/E277Q/G131W/G231S/I119V/I121R/I166T/I218V/L300P/L318F/N151K/N90K/P208A/P217A/Q86G/Q94H/R138H/R169H/T345S) (assay: MHC binding assay (UV-ligand exchange, beta2m ELISA, peptide exchange yield)). Conditions: binding to HLA-A*02:01, β2m ELISA.
Excerpt: Candidate peptides for T cell based therapies according to the present invention were further tested for their MHC binding capacity (affinity). The individual peptide-MHC complexes were produced by UV-ligand exchange, where a UV-sensitive peptide is cleaved upon UV-irradiation, and exchanged with the peptide of interest as analyzed. Only peptide candidates that can effectively bind and stabilize the peptide-receptive MHC molecules prevent dissociation of the MHC complexes. To determine the yield of the exchange reaction, an ELISA was performed based on the detection of the light chain (β2m) of stabilized MHC complexes. The assay was performed as generally described in Rodenko et al. (Rodenko et al., 2006).
96 well MAXISorp plates (NUNC) were coated over night with 2 ug/ml streptavidin in PBS at room temperature, washed 4× and blocked for 1 h at 37° C. in 2% BSA containing blocking buffer. Refolded HLA-A*02:01/MLA-001 monomers served as standards, covering the range of 15-500 ng/ml. Peptide-MHC monomers of the UV-exchange reaction were diluted 100 fold in blocking buffer. Samples were incubated for 1 h at 37° C., washed four times, incubated with 2 ug/ml HRP conjugated anti-β2m for 1 h at 37° C., washed again and detected with TMB solution that is stopped with […]. Absorption was measured at 450 nm. Candidate peptides that show a high exchange yield (preferably higher than 50%, most preferred higher than 75%) are generally preferred for a generation and production of antibodies or fragments thereof, and/or T cell receptors or fragments thereof, as they show sufficient avidity to the MHC molecules and prevent dissociation of the MHC complexes.

Row | Peptide exchange (MHC class I binding score, peptide exchange yield) | Substance
1 | “++++” (≥75% = ++++) | 25 (SLADRLIGV; listed as Homo sapiens) [compound 25]
2 | “++” (≥20% = ++) | 26 (GLASKENFSNVSL; listed as Homo sapiens) [compound 26]
3 | “++” (≥20% = ++) | 27 (LLADEDSSYL; listed as Homo sapiens) [compound 27]
4 | “++++” (≥75% = ++++) | 28 (ALTEIQEFI; listed as Homo sapiens) [compound 28]
5 | “+++” (≥50 = +++) | 29 (QMLDVAIRV; listed as Homo sapiens) [compound 29]
6 | “+” (≥10% = +) | 30 (GLSSAYGGL; listed as Homo sapiens) [compound 30]
7 | “+++” (≥50 = +++) | 31 (LLYGKYVSV; listed as Homo sapiens) [compound 31]
8 | “++” (≥20% = ++) | 32 (KLNTETFGV; listed as Homo sapiens) [compound 32]
9 | “+++” (≥50 = +++) | 33 (ALWEKNTHL; listed as Homo sapiens) [compound 33]
10 | “+++” (≥50 = +++) | 34 (ILLEKSVSV; listed as Homo sapiens) [compound 34]
11 | “+++” (≥50 = +++) | 35 (KLLDLTVRI; listed as Homo sapiens) [compound 35]

The next lines start with the substance.

Row | Substance | Peptide exchange (MHC class I binding score, peptide exchange yield)
12 | 3 (RLIPDTLYSV; listed as Homo sapiens) [compound 3] | “++++” (≥75% = ++++)
13 | 4 (RLAELTVDEFL; listed as Homo sapiens) [compound 4] | “+++” (≥50 = +++)
14 | 5 (WLFDDGGLTL; listed as Homo sapiens) [compound 5] | “++++” (≥75% = ++++)
15 | 6 (FLAELPGSLSL; listed as Homo sapiens) [compound 6] | “+++” (≥50 = +++)
16 | 8 (ALMLQGVDLL; listed as Homo sapiens) [compound 8] | “+++” (≥50 = +++)
17 | 13 (FLLAEDTKV; listed as Homo sapiens) [compound 13] | “+++” (≥50 = +++)
18 | 14 (FLDKPEDVLL; listed as Homo sapiens) [compound 14] | “++” (≥20% = ++)
19 | 15 (LQLDKEFQL; listed as Homo sapiens) [compound 15] | “+++” (≥50 = +++)
20 | 16 (VLVDQSWVL; listed as Homo sapiens) [compound 16] | “+++” (≥50 = +++)
21 | 17 (ALAAARVEL; listed as Homo sapiens) [compound 17] | “+++” (≥50 = +++)
22 | 19 (RLYTKLLNEA; listed as Homo sapiens) [compound 19] | “+++” (≥50 = +++)
23 | 20 (YLKDGDVML; listed as Homo sapiens) [compound 20] | “+++” (≥50 = +++)
24 | 22 (GLIDEVMVL; listed as Homo sapiens) [compound 22] | “+++” (≥50 = +++)
25 | 23 (FLDANGHFV; listed as Homo sapiens) [compound 23] | “+++” (≥50 = +++)
26 | 24 (VLDGVLMEL; listed as Homo sapiens) [compound 24] | “+++” (≥50 = +++)
